Experimental data taken from US7229777B2, “Hairpin peptides with a novel structural motif and methods relating thereto” (Genentech, Inc., priority 2001, dated 2007).
Like-named read-outs stand apart in the source and are kept apart here. Square brackets hold non-standard residues; d marks the D form. Ends that are not written are not given here.

Columns and labels:
[1] = CD-monitored thermal denaturation (two-state unfolding fit); assay type: physicochemical; conditions: for ΔCp / Tm / ΔHm: 20 μM peptide in 20 mM potassium phosphate; for ΔCp / Tm / ΔSm / ΔHm: pH 7.0; for Tm: CD at 229 nm; for ΔSm: calculated from the fit parameters (ΔHm/Tm), 20 μM peptide, 20 mM potassium phosphate; for ΔHm: ΔH at Tm
Procedure: Spectra were acquired with an Aviv Instruments, Inc. Model 202 spectrophotometer. Peptide concentrations were determined spectrophotometrically as described in Gill & von Hippel (1989) Anal. Biochem. 182:319–326. Melting curves were acquired at 229 nm with […] equilibration at each temperature and an averaging time of 15 s. Thermal denaturation was reversible, as judged by recovery of CD signal (≧95%) upon cooling. In addition, reverse melting curves were acquired for trpzips 1 and 4. Reverse and forward curves were identical in shape, with≦0.5 K shift in Tm. As a model for the unfolded state of the peptides, the melting curve (linear) of an equimolar mixture of the trpzip1 half peptides SWTWEG[SEQ ID NO: 14] and NKWTWK [SEQ ID NO: 15] was measured. Data for the trpzip peptides were then fit to a two-state unfolding equilibrium as described in Minor & Kim (1994) Nature 367:660–663, fixing the unfolded baseline. Folded baselines, Tm, ΔHm (ΔH at Tm), and ΔCp were allowed to vary. For trpzips 5 and 6, the unfolded baseline could be fit directly to the experimental data. ΔSm was calculated from the fit parameters (ΔHm/Tm). Errors in Table 2 were generated by the fitting algorithm (Kaleidagraph, Synergy Software) and were given to indicate the quality of the fits to the particular experimental data set. However, when fitting different data sets, ΔHm and ΔCp values varied by ˜10%, as is typical in thermal denaturation experiments. Becktel & Scheilman (1987) Biopolymers 26:1859–1877.
Fitting the trpzip denaturation curves in this manner required large shifts in Tm (˜5–10 K higher than the minimum in a derivative plot) and generated fits of lower quality. […] From our data on trpzips 4, 5 and 6, we can estimate ΔCp ˜200 cal mol^−1 K^−1 for the gb1 peptide, which is sufficient to explain the discrepancy between our population estimate for the gb1 hairpin and those previously reported (Munoz et al. (1997), supra; Honda et al. (2000), supra). Recently, a non-zero ΔCp (˜100 cal mol^−1 K^−1) was reported for the unfolding of a 12-residue hairpin related to gb1. Espinosa & Gellman (2000) Angew. Chem. Int. Ed. 39:2330–2333.

[2] = literature estimates, in water, gb1 at 278 K by NMR, cited from earlier work
[3] = Analytical (equilibrium) ultracentrifugation; assay type: physicochemical; conditions: for σobs/σcalc (reduced apparent molecular weight, observed/calculated): non-ideal single-species model, 20 mM potassium phosphate, 150 mM KCl, pH 7.1, 277 K
Procedure: Samples (in 20 mM potassium phosphate, 150 mM KCl, pH 7.1; 277 K) were analyzed in a Beckman XL-A ultracentrifuge at rotor speeds of 40 and 55 krpm. Peptide concentration was monitored by absorbance at or near 290 nm. Data for both speeds and two initial peptide concentrations (60 and 200 μM, […] data sets total per peptide) were fit simultaneously to a nonideal single species model using the program NONLIN. Johnson et al. (1981) Biophys. J. 36: 575–588.
Allowing nonideality improved the fit for the 200 μM samples while only slightly changing the reduced apparent molecular weight σ (˜+6%). For all 3 peptides, data from 60 μM samples fit an ideal model (FIG. 2) with random residuals. Expected σ values were determined from partial specific volumes based on residue composition, calculated buffer density, and monomer formula weights.

GEWHWDDATKTWVWTE (GEWHWDDATKTWVWTE-NH2) [trpzip7]
ΔCp [1]: 418 ± 4 cal mol^−1 K^−1 | Tm [1]: 80.2 ± 0.1 °C | ΔSm [1]: 70.8 cal mol^−1 K^−1 | ΔHm [1]: 25.03 ± 0.1 kcal/mol

GEWTWDDATKTWTVTE (GEWTWDDATKTWTVTE-NH2) [trpzip6]
ΔCp [1]: 236 ± 17 cal mol^−1 K^−1 | Tm [1]: 44.6 ± 0.48 °C | unfolding free energy ([1]; 298 K): 0.49 kcal/mol | ΔSm [1]: 32.4 cal mol^−1 K^−1 | ΔHm [1]: 10.29 ± 0.3 kcal/mol

GEWTWDDATKTWTWTE (GEWTWDDATKTWTWTE-NH2) [trpzip4]
ΔCp [1]: 380 ± 4 cal mol^−1 K^−1 | Tm [1]: 70.0 ± 0.1 °C | unfolding free energy ([1]; 298 K): 1.69 kcal/mol | ΔSm [1]: 63.7 cal mol^−1 K^−1 | Melting temperature higher than that of wt gb1 peptide ([1]; depending on the method used to estimate the folded population of gb1): at least 40 K | ΔHm [1]: 21.86 ± 0.06 kcal/mol

GEWTYDDATKTFTVTE (Streptococcus; Streptococcus Full The 41-56 residue fragment of the protein G B1 domain) [gb1, reference compound]
ΔCp, estimated from data on trpzips 4, 5 and 6 [1]: ~200 cal mol^−1 K^−1 | ΔGunf, estimated assuming additive stabilization from the two pairs ([1]; 298 K, estimated from trpzips 4, 5 and 6): ~-0.6 kcal/mol | Hairpin population [2]: ~40% | Hairpin population ([2]; listed as GB1 hairpin): about 50%

GEWTYDDATKTFTWTE (GEWTYDDATKTFTWTE-NH2) [trpzip5]
ΔCp [1]: 325 ± 10 cal mol^−1 K^−1 | Tm [1]: 42.7 ± 0.2 °C | unfolding free energy ([1]; 298 K): 0.57 kcal/mol | ΔSm [1]: 42.2 cal mol^−1 K^−1 | ΔHm [1]: 13.32 ± 0.14 kcal/mol

GEWVWDDATKTWHWTE (GEWVWDDATKTWHWTE-NH2) [trpzip8]
ΔCp [1]: 440 ± 4 cal mol^−1 K^−1 | Tm [1]: 79.1 ± 0.1 °C | ΔSm [1]: 73.8 cal mol^−1 K^−1 | ΔHm [1]: 25.98 ± 0.11 kcal/mol

GEWVWDDATKTWVWTE (GEWVWDDATKTWVWTE-NH2) [trpzip9]
ΔCp [1]: 402 ± 2 cal mol^−1 K^−1 | Tm [1]: 92.0 ± 0.0 °C | ΔSm [1]: 73.1 cal mol^−1 K^−1 | ΔHm [1]: 26.69 ± 0.08 kcal/mol

SWTWEGNKWTWK (SWTWEGNKWTWK-NH2) [trpzip1]
ΔCp [1]: 231 ± 4 cal mol^−1 K^−1 | Tm [1]: 49.9 ± 0.3 °C | Tm ([1]; listed as Trpzip1): 50 °C | ΔSm [1]: 33.4 cal mol^−1 K^−1 | Dependence of thermal denaturation on peptide concentration ([1]; trpzip1 20–150 μM, trpzip4 100 μM vs. 20 μM): does not shift with peptide concentration | ΔHm [1]: 10.79 ± 0.12 kcal/mol | σobs/σcalc (reduced apparent molecular weight, observed/calculated) [3]: 1.02 ± 0.04

SWTWENGKWTWK (SWTWENGKWTWK-NH2) [trpzip2]
ΔCp [1]: 281 ± 2 cal mol^−1 K^−1 | Tm [1]: 71.9 ± 0.1 °C | ΔSm [1]: 48.6 cal mol^−1 K^−1 | ΔHm [1]: 16.77 ± 0.06 kcal/mol | Peptide concentration up to which monomeric [3]: at least 200 μM | σobs/σcalc (reduced apparent molecular weight, observed/calculated) [3]: 1.01 ± 0.04

SWTWEpNKWTWK (SWTWE[dP]NKWTWK-NH2; N-terminus assumed; SMILES C[C@@H](O)[C@H](NC(=O)[C@H](Cc1c[nH]c2ccccc12)NC(=O)[C@H](CCCCN)NC(=O)[C@H](CC(N)=O)NC(=O)[C@H]1CCCN1C(=O)[C@H](CCC(=O)O)NC(=O)[C@H](Cc1c[nH]c2ccccc12)NC(=O)[C@@H](NC(=O)[C@H](Cc1c[nH]c2ccccc12)NC(=O)[C@@H](N)CO)[C@@H](C)O)C(=O)N[C@@H](Cc1c[nH]c2ccccc12)C(=O)N[C@@H](CCCCN)C(N)=O) [trpzip3]
ΔCp [1]: 195 ± 2 cal mol^−1 K^−1 | Tm [1]: 78.7 ± 0.2 °C | ΔSm [1]: 37.0 cal mol^−1 K^−1 | ΔHm [1]: 13.02 ± 0.07 kcal/mol | σobs/σcalc (reduced apparent molecular weight, observed/calculated) [3]: 1.00 ± 0.04
